In article PMC13334617:
Values joined by “and” are separate entries in the source; they are usually repeats but may differ in a detail not shown here. Identical values can stand only once.

B1: CaM fused to the V1K nanobody at its N-terminus, with a C-terminal AviTag (CaM-V1K), encoded by plasmid pK1Cam-V1K (VHH)
VHH: QVQLVESGGALVQPGGSLRLSCAASGFPVNRYSMRWYRQAPGKEREWVAGMSSAGDRSSYEDSVKGRFTISRDDARNTVYLQMNSLKPEDTAVYYCNVNVGFEYWGQGTQVTVSS
B2: CaM fused to the V9A nanobody at its N-terminus and a tetra-cysteine tag at its C-terminus (CaM-V9A) (VHH)
VHH: DVQLQESGGGSVQAGGSLRLSCAASGDTFSSYSMAWFRQAPGKECELVSNILRDGTTTYAGSVKGRFTISRDDAKNTVYLQMVNLKSEDTARYYCAADSGTQLGYVGAVGLSCLDYVMDYWGKGTQVTVSS
B3: CaM fused to the V9A nanobody at its N-terminus, with a C-terminal AviTag (CaM-V9A), encoded by plas (VHH)
VHH: B2 VHH

Key:
[1] = target: ACM2 variant of AC fused to GFP (ACM2-GFP), encoded by plasmid pACM2-Gfp (Bordetella pertussis | not stated) (UniProt P0DKX7); test: two-hybrid
[2] = target: ACM1 variant of AC fused to GFP (ACM1-GFP), encoded by plasmid pACM1-Gfp (Bordetella pertussis | not stated) (UniProt P0DKX7); test: two-hybrid

Row | Binder | ß gal (Rel. Units) [1] | cAMP [1] | cAMP [2] | ß gal (Rel. Units) [2]
1 | B1 | 74 Rel. Units | – | – | –
2 | B2 | 78 Rel. Units | > 60 nmol/mg | > 50 nmol/mg | 26 Rel. Units
3 | B3 | 57 Rel. Units and 23 Rel. Units | – | – | 4 Rel. Units
